Data on two substances can be found in article PMC6985046.

Experiment [1] addresses PF-06438179/GP1111 Fab fragment (mouse/human chimeric). Description: AUC.
Experiment [2] has as its target Remicade Fab fragment (sourced from the European Union market) (mouse/human chimeric). Description: AUC.

By stoichiometry N is commonly meant a count of units in the complex or per binding partner. As a reminder, the Kd is the free concentration of one partner at which half of the binding sites on the other are occupied at equilibrium, for simple one-to-one binding.

Turning to PF-06438179/GP1111 Fab fragment, the stoichiometry N in experiment [1] was 2.
On to “Remicade Fab fragment (sourced from the European Union market)”, for which the Kd in experiment [2] is 23 µM.
